Data reported in paper PMC5727538, “Comprehensive analysis of the catalytic and structural properties of a mu-class glutathione s-transferase from Fasciola gigantica” (Scientific Reports, 2017).

Biological target: the molecule itself
Assay: SEC; Superdex 200 10/300 GL on AKTA-FPLC, 20 mM phosphate buffer pH 7.5, 150 mM NaCl, 0.3 mL/min; calibrated with molecular weight markers; elution at 15.4 mL, about 50 kDa

B1: mu-class glutathione S-transferase from Fasciola gigantica (FgGST1) (enzyme)
chain: MPATLGYWKLRGLAQPIRLLLEFVGEKYEEQIYERDDGEKWFSKKFELGLDLPNLPYYIDDKCKLTQSLAILRYIADKHGMIGSTPEERARVSMIEGAAVDLRQGLSRISYDPKFEQLKEGYLKDLPTTMKMWSDFLGKNLYLRGTSVSHVDFMVYEALDAIRYLEPHCLDHFPNLQQFMSRIEALPSIKAYMESNRFIKWPLNGWHAQFGGGDAPPSHEKK
stoichiometry N: 2
